This note sets out measurements from article doi:10.1101/2020.09.09.287375.

This experiment concerns the target human serum albumin (human) (UniProt P02768). Kind of experiment: ITC. A general note: Isothermal titration calorimetry measures the heat released or taken up as one component is titrated into another.

As to dalbavancin (peptide), the dH was -8.9 kcal/mol and the stoichiometry N (in general, the number of molecules, sites or subunits per partner or assembly) stood at 0.84.
